{
  "source": "the DeepSol protein solubility set",
  "data": [
    {"experiment": "soluble on expression in E. coli; label from the status in PepcDB or PDB records", "values": [
      {"sequence": "MKIAGLKQLNTALKEAASGGFSRQASRWLEECGQDFLEIVQSELISTQTIDTEKLLSSFEKGAEDNLWIVQSGGLSLEVGTQLDYASFLNDGHWTSKQDVRWVPGRFQGSRFIYDPAASTGMALKRKWIPGTGYWDHALLLYEQLFEKSLESKLRQWLKKLLEHHHHHH", "soluble on expression in E. coli": "soluble"},
      {"sequence": "MKIAIASSGTDLGSEVSRFFGRAPYFMIVEMKKGNIESSEVIENPSASASGGAGIRTAQIIANNGVKAVIASSPGPNAFEVLNELGIKIYRATGTSVEENLKLFTEGNLEEIRSPGSGRGRRRR", "soluble on expression in E. coli": "soluble"},
      {"sequence": "MKIALIGATGHVGHYFLNEALQRGHAVTALVRDPSKLAARDGLCVVQADVSDPAQVASAVAGHEVVISAFNGGWGSADLRARHAAGSQAILDGVKRSGVPRLLVLGGAGSLEIAPGQRLVDSPEFPEQWKQGALGAADALDQLRGEQRLDWVFLSPAMLLEPGQRSGKFRLGGDQVLFDAKGESRISLEDLAVAMLDEAEQPRHHRQRFTVAYLEHHHHHH", "soluble on expression in E. coli": "soluble"},
      {"sequence": "MKIARLNLWHVPLTSHTAYYMADGKTCDTVETVVIAVQTDTGITGWGEVCPIPHYLPAYARGVAPALTELAPVILGADPVGVGALMERVDAVLHGHPYAKSALDIALWDITGQVAGLPLHALLGGWRAADMPLYHSITCIAPDDMARIAREAQAQGITQFQVKLGASGDWQTDVERLAKVREAVGPGPLVYGDWNCGATSLEAIRVGRAVAQLDIMLEQPCATLEDCARVQRATGLPMKIDELAHDTASLLTAHRLGIMDAVALKLSKFGGLSTTRRARDLCLHLGARMCIEDTWGSDITTAALLHLGAASEPGRVLNVCDLSGYVAPRLAPDAPVRANGRIAPPEGAGLGITVDRGALGVPDLILD", "soluble on expression in E. coli": "soluble"},
      {"sequence": "MKIGVVGLGLIGASLAGDLRRRGHYLIGVSRQQSTCEKAVERQLVDEAGQDLSLLQTAKIIFLCTPIQLILPTLEKLIPHLSPTAIVTDVASVKTAIAEPASQLWSGFIGGHPMAGTAAQGIDGAEENLFVNAPYVLTPTEYTDPEQLACLRSVLEPLGVKIYLCTPADHDQAVAWISHLPVMVSAALIQACAGEKDGDILKLAQNLASSGFRDTSRVGGGNPELGTMMATYNQRALLKSLQDYRQHLDQLITLISNQQWPELHRLLQQTNGDRDKYVE", "soluble on expression in E. coli": "soluble"},
      {"sequence": "MKIISKEFTVKTRSRFDSIDITEQVSEAIKGINNGIAHVIVKHTTCAIIINEAESGLMKDFLNWAKKLVPPDGEFEHNIIDNNGHAHVISAIIGNSRVVPIIEGKLDLGTWQRIILLEFDGPRTRTVLVKSMGE", "soluble on expression in E. coli": "soluble"},
      {"sequence": "MKIKHLPFDQNRNGWSADLVDKPNYPQQRGKTTADWLVIGAGYAGIAFAQRLAEQRPDKHIILLDAGEIGDNASGRNSGFVIDLPHNIGSSTAELEKAAAYRRLLQSGVAHLKEKVDRHAIACDWSVAGKYHCAVSSTFNGLIDTYVRELNGLGEPYQVVEKDELARRLGTSFYQRAVYTPNCILLNPAALVIGLVASLPKNVTVYAHSPALNIETGSRIRVETPYGEIQADKLMMAINGAARGLPLFNGRVFAVTTFATLTEPLNAEQTARMGDMPDWGLTPVNALASATLRYTRDHRFLIREHVKFAPELVNSAVETGRHARRHAAIFARMFPQLSDVKMAHTWSGLISVTRNGAPIWGQLSDNVFASAGCNGAGLSKQTAAGHILADLALGEDNPLISDMQSLGQANYLPPRPFLDVGVNGYLTSERWKARSERLEHHHHHH", "soluble on expression in E. coli": "not soluble"},
      {"sequence": "MKIKYFFIPLFSSAILFSACSSIQSDLRNLIKETTGKDFDVSKLIKTSEGRKNLINSLKKSYESKPDETASLLLIAWKQSAEMGEIGFDDIKEGGIYTRDNDPFKLEQKVEYFNMEYKILVMF", "soluble on expression in E. coli": "soluble"},
      {"sequence": "MKILFVAAEGAPFSKTGGLGDVIGALPKSLVKAGHEVAVILPYYDMVEAKFGNQIEDVLHFEVSVGWRRQYCGIKKTVLNGVTFYFIDNQYYFFRGHVYGDFDDGERFAFFQLAAIEAMERIDFIPDLLHVHDYHTAMIPFLLKEKYRWIQAYEDIETVLTIHNLEFQGQFSEGMLGDLFGVGFERYADGTLRWNNCLNWMKAGILYANRVSTVSPSYAHEIMTSQFGCNLDQILKMESGKVSGIVNGIDADLYNPQTDALLDYHFNQEDLSGKAKNKAKLQERVGLPVRADVPLVGIVSRLTRQKGFDVVVESLHHILQEDVQIVLLGTGDPAFEGAFSWFAQIYPDKLSTNITFDVKLAQEIYAACDLFLMPSRFEPCGLSQMMAMRYGTLPLVHEVGGLRDTVRAFNPIEGSGTGFSFDNLSPYWLNWTFQTALDLYRNHPDIWRNLQKQAMESDFSWDTACKSYLDLYHSLVN", "soluble on expression in E. coli": "not soluble"},
      {"sequence": "MKIMEINVEHILDCLDQYGKGELTEEQLVKALTYDEKMFLIMHQGLLGENSDSEDDFDVQDWLEEEESFFMVVEVNENLCRQAESVLEEIGVEMPDAIEGFLNQLVEKKQFPVVINS", "soluble on expression in E. coli": "not soluble"},
      {"sequence": "MKINNKLVGERIQNIRLSHGDSMEKFGEKFNTSKGTVNNWEKGRNLPNKENLLKIASIGKMSVEELLYGDYNTYLHLKIMDLAPECIKNYDEYNSLHDDITNKALQIAQNTISKIDYQISDETIKKFIDLAIEQSRDLQGNLLKNNLSNFDYSLFGGTRNREYFYFGYRLTYKEKYLYTALLAILNESTKTIYIDDINTARFFNFFGNDIPNSSLKKIDYIAPSEIVSFSTYVRQRSKVIPKILEHILKSSFLLENIDVSGYTVNILEDQLTKHRTIKISKN", "soluble on expression in E. coli": "not soluble"},
      {"sequence": "MKIRESTGKTSSLREVPGQEPRRVADSSGSSFKRHLKEFDHRNHEERIRALVSQIEEQGRKLSQKIDVAELKVYKRLISDFLDEVLHHSHIFSKDSHLDRRGRYKVYATVKKINEELDELTKEVLNAEKDNIRILQRIEDIRGLVLDLML", "soluble on expression in E. coli": "soluble"},
      {"sequence": "MKISAVVVTFNRKKLLLECLNALRNQTYPLDAIFIIDGPSTDGTPEALLECGYIKELPPKKGNWSWETKNVIYSPINNKPIKVYYVRLYKDVGGSGGFYEGVKRAYEEGYNWIWLMDDDAEPREDALEKLIRYMNLPGVIALAPTVIRPTGEISKPHRGILCFKKIFPMIQIPLDESKYKSNQPVQIDFVSFVGPLIKRDAIKIVGFPKKEFFIHHDDVEYSIRLRTVGKIYLIPDSVIIHKENIKKTSLIKKRFLGKTIYRIPYNKLWKTYYGTRNLTYLGRIYSKSKFKFYFKLLKRWAVSVGAIILFDDHKIKRIQFITSAYLDGLRGKFDNEKPKRILYGGKKELEHHHHHH", "soluble on expression in E. coli": "soluble"},
      {"sequence": "MKITFLGAAKTVTGSCFFVETASTKFLVDCGMFQGYSKNNALNEEEFPFNVEELDYIFLTHAHIDHSGRIPRIYIKGFRGQIIATKATVELCAIMLPDSGHIQEYENEWTNRKRLRAGKPPVEPLYTYQDAVNCLELFRKVSYDEVIKINDEIRVRFRDAGHILGSAIIEMWINERGEEIKIVFSGDLGNKDIPILRDPSIIESADYLVIESTYGNRLHNERVDKAEYFLNLINSTIEKGGNVIIPSFAAGRTQELIYELNKKKEVYDEKLKMLFATPVYIDSPMAISATEVFRNNLDCYDEEAREYIENGDNPLDFPGLQFTRTAEESKALNERKESSIIIAASGMCEAGRIRHHLKHNLWRKDSTIIFVGYQAEGTLGRRLLDGAKKVRLFGEEISVEARIEMIEGFSGHADKEGLLKWIERFNRKPKKIFIVHGEEDAMIEFSEEINRRFNIETVIPSRGESFILNAHNVIAIDEKVRPDNSFRILQVVEKLENIKEEVEELSYILKSDLKQDKTDLELDELMAKLKNIEKSILEALK", "soluble on expression in E. coli": "not soluble"},
      {"sequence": "MKIVAVTACPTGIAHTYMAADALTKAAPKYNVQIKVETQGAMGIENPLTPYDLSHADKVLIVSDIDIEQPARFEGMKVVKLSIEEVLLNVDKVFLVHCR", "soluble on expression in E. coli": "not soluble"},
      {"sequence": "MKIVWYGHACFLVKTKGVSILIDPYPDVDEDRMEKVDYILITHEHMDHYGKTPLIAKLNDAEVIGPKTVYLMAISDGLTKVREVEADQEFQLGDVTVKTFYTEHPTSQYPLGYLILGEKRVAHLGDTYYSPGFRELRGQVDILLVPIGGRSTASEREAVDIIDIIRPRIVVPMHYGTYGSTGNVESFKRELQRRRVWVLVKDLKPYEGFEV", "soluble on expression in E. coli": "soluble"},
      {"sequence": "MKIWSSEHVFGHPWDTVIKAAMRKYPNPMNPCVVGVDVLERSVDGCGRLHSLRLLSTEWGLPGLVRAILGANRTLTYIKERSVVDPAARKMELCSTNITLTNLVSVNERLVYTPHPENPEKTVLTQEAIITVKGISLGSYLESLMATTISSNAKKGWAAIEWIIEHSESAIS", "soluble on expression in E. coli": "not soluble"},
      {"sequence": "MKKDILEKGAILQRDRETYAIAPHIPGGITDTATLRKLCDVADKYGVKELKLTSAQRIALFGVKEEDLDAIWSDLDQQPGAAIGLCVRSVKICPGTTWCKRGVQDSVSLGLKIDAIYHAMELPNKMKMGISGCMLNCAETMLKDVGVVGTPKGWRIYVGGNAGARPRIGDLLVELGPDEDKVLAVIADLVEWYRSSGSEQRLGRVVEQMGFDAFKTAVLGAKATP", "soluble on expression in E. coli": "not soluble"},
      {"sequence": "MKKEEAKDIPIGGEIAVRQTGVPYGWLYRRTEPGYLLANGIALLECERDSAGRYKGGAGLDGMYLQTGRLYVPVLAGDGNVRAFQEVIPENYLAAAEMSVEGNYNQIDGIINNEPPKPSVLDALNQCREDAAKGRDAPENPPRGQEVER", "soluble on expression in E. coli": "not soluble"},
      {"sequence": "MKKEHQKTLTFEIITPVVMAGTYKDEPELRIPSIKGMLRWWFRFFYASHNQSIDKLREHENEIFGSTEKACQFYMHLKYSQKLTDAYLAMNKRYGRYNNIKRKALEKNDTFRIDFIYSPFFTYKKELNTTLQLLSFLGGIGARWRRGFGSIQLKNGEDYKSFDKLKEKIEKVLKGKGEYHHDGFININNVDIYLVKPKRDNFWIDSLGAMNNLRKKVYKEFKSETNIKAIACKPKGGSRAVSPLIIQIKKFSEGKFYGILIVYNEWDKYEEFKNFINNNSELSFEQLLKSKPRKI", "soluble on expression in E. coli": "soluble"},
      {"sequence": "MKKEKLRTENISFQYPGAATYALKDVSFSLFEGEWVSVIGQNGSGKSTLAKLLNGLFLPEAGTITVNDTMILSEETVWDVRKQIGMVFQNPDNQFVGTTVQDDVVFGLENIGMPREQMVERLNQALRLVRMEDFLNDEPHSLSGGQKQRVAIAGVLALQPSILILDEATSMLDPQGRREVVETVRQLVNEKGITVLSITHDLEEAAQSDRVIILNKGEILEEGTPEQIFKSSHMLQEIGLDVPFSVKIAELLKRNEILLQNTHLTMESLVNELWRLHSKK", "soluble on expression in E. coli": "not soluble"},
      {"sequence": "MKKFFLFLVLPIFLFASPLKAVFDCAVGDLDWISLRLSLIKKTAEQLMEEGKSYRFVITIHSHCIKVVDADLKKFPESERRKIELIQSQLKTLKEMYSVDVKACQIAMNRGKIKKVPPFVETVPNSWITLIELQNKGFAFVPF", "soluble on expression in E. coli": "not soluble"},
      {"sequence": "MKKICMKNGMKIIYEYRESDITSFCVAFNAGAEREGKKERGLAHVVEHCIFKGTKKRSEAQINSEFDEIFGFNNAMTNFPYVIYYGTTLSKDFEKGFELYSDIIVNPTFSEEGFEEEKSIICEELTEWKDDKQQFCEDELLKNSFSNIRLKECIIGNEKNIKDFSIDELRKFYKKYYTSDNCVIGIVTSLKEEEVTDIINNYMTLSKREKPSLFDYEYEKNTSGIFTSKMDVKGAVIQYLFPIYKLKDDEIKALRAFNVIFGEGTSSMLYDKIRTKYGLAYDIYSKINNDGGIKLFYIGLGTASENFDKSIEFVNDTICEAKNLKGQFSSDKLLKIEKTMSLKRSLKLERSIQLAKELATYELMYGKAENVYDEVKDINLLNEDYIIEVVRSVLVTPSIQVVKPNK", "soluble on expression in E. coli": "not soluble"}
    ]}
  ]
}
